Like-named read-outs stand apart in the source and are kept apart here.
Legend:
[1] = target: Abeta 1-42 globulomer, P05067; assay: 42 (globulomer) RLU over 40 (Abeta 1-40 monomer) RLU
[2] = target: Abeta 1-42 globulomer, P05067; assay: MPA bead capture, CSF + 1 ng/mL globulomer, Abeta immunoassay
[3] = target: Abeta 1-40 monomer, P05067; assay: MPA bead capture, Abeta 1-40 read-out of the CSF sample (noise)
[4] = target: ADDL (Abeta42 aggregate), P05067; assay: MPA, serial dilutions in CSF, LoD = 2x over background
[5] = target: ASPD (Abeta42 aggregate), P05067; assay: as above
[6] = target: Abeta (1-42) aggregates from Alzheimer's Disease Brain Homogenate (human), P05067; assay: as above
Abeta42 fibrils, P05067 = assay: as above
Abeta 1-40 monomer = Abeta 1-40 monomer (UniProt P05067); assay: MPA bead capture, Abeta 1-40 read-out of the CSF sample (noise)
[7] = remark: other sources report otherwise

Binder | 42:40 ratio [1] | average RLU (42) [2] [RLU] | other results
AKKKKA (modifications not checked) | 2.1 | 322 | –
KKKFKF (modifications not checked) [KKKFKF-link] | 3.9 | 748 | –
AAAKAA (modifications not checked) | 0.8 | 114 | –
FKFNLFSG (modifications not checked) | 2.4 | 3230 | average RLU (40) [3]: 1330 RLU
KKKFKF (modifications not checked) [link-KKKFKF] | 5.9 | 1650 | –
FKFKKK (HELM PEPTIDE1{[ac].F.K.F.K.K.K.[O=C(CCCCCN[*:1])[*:2]].[O=C(CCCCCN[*:1])[*:2]].C.[am]}$$$$V2.0; SMILES CC(=O)N[C@@H](Cc1ccccc1)C(=O)N[C@@H](CCCCN)C(=O)N[C@@H](Cc1ccccc1)C(=O)N[C@@H](CCCCN)C(=O)N[C@@H](CCCCN)C(=O)N[C@@H](CCCCN)C(=O)NCCCCCC(=O)NCCCCCC(=O)N[C@@H](CS)C(N)=O) [Ac-FKFKKK-Link (Ac-FKFKKK-Ahx-Ahx-Cys-NH2)] | 5.7 | 2000 | LoD [4]: 300 pg/mL; LoD [5]: 300 pg/mL; LoD [6]: < 10 pg/mL; LoD (Abeta42 fibrils, P05067): 100 pg/mL
AAKKKA (modifications not checked) | 1.6 | 247 | –
ANFFAHSS (modifications not checked) | 1.8 | 994 | –
IRYVTHQYILWP (modifications not checked) […] | 3.2 | 3240 | average RLU (40) (Abeta 1-40 monomer): 348 RLU; average RLU (40) [3]: 1010 RLU
FKFSLFSG (modifications not checked) | 1.5 | 3080 | average RLU (40) [3]: 2010 RLU
DFKLNFKF (modifications not checked) | 2 | 516 | –
FKFKKK (modifications not checked) [link-FKFKKK] | 4.1 | 808 | –
KKKKKK (modifications not checked) | – | – | 42:40 ratio [1, 7]: 3.3; average RLU (42) [2, 7]: 658 RLU
AAKKAA (modifications not checked) | 1.1 | 160 | –
AKKKKK (modifications not checked) | 2.5 | 442 | –
